Test results published in IntAct's records for PubMed 31515488.

B1: Zinc finger protein Aiolos (Homo sapiens), Q9UKT9 (parent)
chain: MEDIQTNAELKSTQEQSVPAESAAVLNDYSLTKSHEMENVDSGEGPANEDEDIGDDSMKVKDEYSERDENVLKSEPMGNAEEPEIPYSYSREYNEYENIKLERHVVSFDSSRPTSGKMNCDVCGLSCISFNVLMVHKRSHTGERPFQCNQCGASFTQKGNLLRHIKLHTGEKPFKCHLCNYACQRRDALTGHLRTHSVEKPYKCEFCGRSYKQRSSLEEHKERCRTFLQSTDPGDTASAEARHIKAEMGSERALVLDRLASNVAKRKSSMPQKFIGEKRHCFDVNYNSSYMYEKESELIQTRMMDQAINNAISYLGAEALRPLVQTPPAPTSEMVPVISSMYPIALTRAEMSNGAPQELEKKSIHLPEKSVPSERGLSPNNSGHDSTDTDSNHEERQNHIYQQNHMVLSRARNGMPLLKEVPRSYELLKPPPICPRDSVKVINKEGEVMDVYRCDHCRVLFLDYVMFTIHMGCHGFRDPFECNMCGYRSHDRYEFSSHIARGEHRALLK
partner: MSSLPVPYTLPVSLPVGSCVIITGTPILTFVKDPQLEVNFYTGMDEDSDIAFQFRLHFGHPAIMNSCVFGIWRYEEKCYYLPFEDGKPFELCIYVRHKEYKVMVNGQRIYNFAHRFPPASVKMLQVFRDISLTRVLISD
B2: Complex I assembly factor TIMMDC1, mitochondrial (Homo sapiens), Q9NPL8 (parent)
chain: MEVPPPAPRSFLCRALCLFPRVFAAEAVTADSEVLEERQKRLPYVPEPYYPESGWDRLRELFGKDEQQRISKDLANICKTAATAGIIGWVYGGIPAFIHAKQQYIEQSQAEIYHNRFDAVQSAHRAATRGFIRYGWRWGWRTAVFVTIFNTVNTSLNVYRNKDALSHFVIAGAVTGSLFRINVGLRGLVAGGIIGALLGTPVGGLLMAFQKYSGETVQERKQKDRKALHELKLEEWKGRLQVTEHLPEKIESSLQEDEPENDAKKIEALLNLPRNPSVIDKQDKD
partner: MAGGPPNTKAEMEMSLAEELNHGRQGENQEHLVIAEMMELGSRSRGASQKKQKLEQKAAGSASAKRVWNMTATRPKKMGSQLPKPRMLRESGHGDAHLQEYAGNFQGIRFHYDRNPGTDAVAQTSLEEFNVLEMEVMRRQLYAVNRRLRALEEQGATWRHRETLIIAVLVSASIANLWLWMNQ
B3: EF-hand calcium-binding domain-containing protein 4B (Homo sapiens), Q9BSW2 (parent)
chain: MAAPDGRVVSRPQRLGQGSGQGPKGSGACLHPLDSLEQKETQEQTSGQLVMLRKAQEFFQTCDAEGKGFIARKDMQRLHKELPLSLEELEDVFDALDADGNGYLTPQEFTTGFSHFFFSQNNPSQEDAGEQVAQRHEEKVYLSRGDEDLGDMGEDEEAQFRMLMDRLGAQKVLEDESDVKQLWLQLKKEEPHLLSNFEDFLTRIISQLQEAHEEKNELECALKRKIAAYDEEIQHLYEEMEQQIKSEKEQFLLKDTERFQARSQELEQKLLCKEQELEQLTQKQKRLEGQCTALHHDKHETKAENTKLKLTNQELARELERTSWELQDAQQQLESLQQEACKLHQEKEMEVYRVTESLQREKAGLLKQLDFLRERNKHLRDERDICFQKNKAAKANTAASRASWKKRSGSVIGKYVDSRGILRSQSEEEEEVFGIPRRSSLGLSGYPLTEEEPGTGEPGPGGPYPRPLRRIISVEEDPLPQLLDGGFEQPLSKCSEEEEVSDQGVQGQIPEAPPLKLTPTSPRGQPVGKEALCKEESSPSAPDRLFKIVFVGNSAVGKTSFLRRFCEDRFSPGMAATVGIDYRVKTLNVDNSQVALQLWDTAGQERYRCITQQFFRKADGVIVMYDLTDKQSFLSVRRWLSSVEEAVGDRVPVLLLGNKLDNEKEREVPRGLGEQLATENNLIFYECSAYSGHNTKESLLHLARFLKEQEDTVREDTIQVGHPAKKKSCCG
partner: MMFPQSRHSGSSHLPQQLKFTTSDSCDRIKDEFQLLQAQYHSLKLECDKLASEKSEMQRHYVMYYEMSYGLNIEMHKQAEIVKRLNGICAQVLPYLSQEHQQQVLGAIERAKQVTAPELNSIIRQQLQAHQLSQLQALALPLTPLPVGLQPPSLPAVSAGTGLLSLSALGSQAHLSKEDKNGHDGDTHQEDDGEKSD
B4: Trichoplein keratin filament-binding protein (Homo sapiens), Q9BT92 (parent)
chain: MALPTLPSYWCSQQRLNQQLARQREQEARLRQQWEQNSRYFRMSDICSSKQAEWSSKTSYQRSMHAYQREKMKEEKRRSLEARREKLRQLMQEEQDLLARELEELRLSMNLQERRIREQHGKLKSAKEEQRKLIAEQLLYEHWKKNNPKLREMELDLHQKHVVNSWEMQKEEKKQQEATAEQENKRYENEYERARREALERMKAEEERRQLEDKLQAEALLQQMEELKLKEVEATKLKKEQENLLKQRWELERLEEERKQMEAFRQKAELGRFLRHQYNAQLSRRTQQIQEELEADRRILQALLEKEDESQRLHLARREQVMADVAWMKQAIEEQLQLERAREAELQMLLREEAKEMWEKREAEWARERSARDRLMSEVLTGRQQQIQEKIEQNRRAQEESLKHREQLIRNLEEVRELARREKEESEKLKSARKQELEAQVAERRLQAWEADQQEEEEEEEARRVEQLSDALLQQEAETMAEQGYRPKPYGHPKIAWN
partner: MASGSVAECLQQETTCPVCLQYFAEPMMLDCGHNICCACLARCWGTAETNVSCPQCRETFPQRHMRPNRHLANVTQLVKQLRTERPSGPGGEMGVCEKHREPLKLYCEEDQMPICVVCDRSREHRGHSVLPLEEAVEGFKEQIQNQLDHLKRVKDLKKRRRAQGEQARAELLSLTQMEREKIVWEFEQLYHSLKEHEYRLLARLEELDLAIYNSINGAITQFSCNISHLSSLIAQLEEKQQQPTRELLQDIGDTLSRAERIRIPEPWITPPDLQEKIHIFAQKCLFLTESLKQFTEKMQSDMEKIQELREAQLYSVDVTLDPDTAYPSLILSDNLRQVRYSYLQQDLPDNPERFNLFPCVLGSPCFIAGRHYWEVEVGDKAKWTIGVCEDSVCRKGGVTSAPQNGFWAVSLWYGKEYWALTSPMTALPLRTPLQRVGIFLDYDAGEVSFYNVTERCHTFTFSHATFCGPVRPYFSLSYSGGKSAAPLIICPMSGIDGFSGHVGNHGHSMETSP
B5: UPF0462 protein C4orf33 (Homo sapiens), Q8N1A6 (parent)
chain: MDFKIEHTWDGFPVKHEPVFIRLNPGDRGVMMDISAPFFRDPPAPLGEPGKPFNELWDYEVVEAFFLNDITEQYLEVELCPHGQHLVLLLSGRRNVWKQELPLSFRMSRGETKWEGKAYLPWSYFPPNVTKFNSFAIHGSKDKRSYEALYPVPQHELQQGQKPDFHCLEYFKSFNFNTLLGEEWKQPESDLWLIEKCDI
partner: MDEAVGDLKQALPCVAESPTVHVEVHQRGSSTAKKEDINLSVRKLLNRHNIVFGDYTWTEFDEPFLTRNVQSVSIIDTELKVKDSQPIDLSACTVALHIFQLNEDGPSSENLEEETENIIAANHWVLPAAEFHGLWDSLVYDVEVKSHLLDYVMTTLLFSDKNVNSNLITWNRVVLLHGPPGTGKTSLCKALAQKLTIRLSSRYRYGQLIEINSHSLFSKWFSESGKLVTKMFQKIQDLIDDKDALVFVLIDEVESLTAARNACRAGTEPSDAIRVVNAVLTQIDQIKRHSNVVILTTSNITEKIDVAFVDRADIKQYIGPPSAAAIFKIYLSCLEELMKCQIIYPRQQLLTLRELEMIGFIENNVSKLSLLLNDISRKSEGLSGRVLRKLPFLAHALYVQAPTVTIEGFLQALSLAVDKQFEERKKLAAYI
B6: PDCD10 and GCKIII kinases-associated protein 1 (Homo sapiens), Q8IY42 (parent)
chain: MGCRCCKIIQSYLFDPVQVPSPGYVNEVNSCKLDEDDTDKLKGKWSSEVLVQKNDPQRQGSKKTESSSRTADPWEPCWPHQGPLPQGDAGGEHHACGVNGIGPAATPQPTGNSSPTQDDRGSWASTANTVPPTQPFLEGGGTRKQDCVLLASEGTQVMRNGDSRAPSEAESFALEVQDHVFQIPAPDYLQHWGPAGDNVDHNEKDCVFKNHTEDESLEGIQPPVGEHGLNTPFSVRRSWDSLNEDVETEVLSICFNEKGPVHAMPVVDSGNRQEDTHGSDGDGDGEIVDEDAAVAEALAALEAATAGEDLDETD
B7: Programmed cell death 6-interacting protein (Homo sapiens), Q8WUM4 (parent)
chain: MATFISVQLKKTSEVDLAKPLVKFIQQTYPSGGEEQAQYCRAAEELSKLRRAAVGRPLDKHEGALETLLRYYDQICSIEPKFPFSENQICLTFTWKDAFDKGSLFGGSVKLALASLGYEKSCVLFNCAALASQIAAEQNLDNDEGLKIAAKHYQFASGAFLHIKETVLSALSREPTVDISPDTVGTLSLIMLAQAQEVFFLKATRDKMKDAIIAKLANQAADYFGDAFKQCQYKDTLPKEVFPVLAAKHCIMQANAEYHQSILAKQQKKFGEEIARLQHAAELIKTVASRYDEYVNVKDFSDKINRALAAAKKDNDFIYHDRVPDLKDLDPIGKATLVKSTPVNVPISQKFTDLFEKMVPVSVQQSLAAYNQRKADLVNRSIAQMREATTLANGVLASLNLPAAIEDVSGDTVPQSILTKSRSVIEQGGIQTVDQLIKELPELLQRNREILDESLRLLDEEEATDNDLRAKFKERWQRTPSNELYKPLRAEGTNFRTVLDKAVQADGQVKECYQSHRDTIVLLCKPEPELNAAIPSANPAKTMQGSEVVNVLKSLLSNLDEVKKEREGLENDLKSVNFDMTSKFLTALAQDGVINEEALSVTELDRVYGGLTTKVQESLKKQEGLLKNIQVSHQEFSKMKQSNNEANLREEVLKNLATAYDNFVELVANLKEGTKFYNELTEILVRFQNKCSDIVFARKTERDELLKDLQQSIAREPSAPSIPTPAYQSSPAGGHAPTPPTPAPRTMPPTKPQPPARPPPPVLPANRAPSATAPSPVGAGTAAPAPSQTPGSAPPPQAQGPPYPTYPGYPGYCQMPMPMGYNPYAYGQYNMPYPPVYHQSPGQAPYPGPQQPSYPFPQPPQQSYYPQQ

Variants of: B1
Settings: with ppl13_human LGALS14, Q8TCE9

Q: For A24V, which “effect of a mutation on the interaction” value is on record?
A: with no effect

Variants of: B2
Settings: with fate1_human FATE1, Q969F0

Q: With A164G as the variant, how does the “effect of a mutation on the interaction” value read?
A: with no effect

Q: With P247S as the variant, how does the “effect of a mutation on the interaction” value read?
A: with no effect

Q: N76D was tested. Which “effect of a mutation on the interaction” value did it give?
A: with no effect

Variants of: B3
Settings: with tle5_human TLE5, Q08117

Q: For H212Q, which “effect of a mutation on the interaction” value is on record?
A: with no effect

Variants of: B4
Settings: with tri27_human TRIM27, P14373

Q: For K127R, which “effect of a mutation on the interaction” value is on record?
A: with no effect

Variants of: B5
Settings: with pch2_human TRIP13, Q15645

Q: For H166R, which “effect of a mutation on the interaction” value is on record?
A: with no effect

Variants of: B6
Settings: with pdc10_human PDCD10, Q9BUL8
pdc10_human PDCD10, Q9BUL8, sequence (Q9BUL8 whole entry): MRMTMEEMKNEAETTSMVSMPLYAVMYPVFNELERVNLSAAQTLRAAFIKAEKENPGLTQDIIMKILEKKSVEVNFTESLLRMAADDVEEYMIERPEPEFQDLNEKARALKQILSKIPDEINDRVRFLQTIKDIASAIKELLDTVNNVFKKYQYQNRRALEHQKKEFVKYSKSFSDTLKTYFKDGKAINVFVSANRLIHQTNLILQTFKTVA

Q: For A151T, which “effect of a mutation on the interaction” value is on record?
A: with no effect

Variants of: B6
Settings: with eif3e_human EIF3E

Q: A151T was tested. Which “effect of a mutation on the interaction” value did it give?
A: with no effect

Variants of: B7
Settings: with pdcd6_human PDCD6, O75340
pdcd6_human PDCD6, O75340, sequence (O75340 whole entry): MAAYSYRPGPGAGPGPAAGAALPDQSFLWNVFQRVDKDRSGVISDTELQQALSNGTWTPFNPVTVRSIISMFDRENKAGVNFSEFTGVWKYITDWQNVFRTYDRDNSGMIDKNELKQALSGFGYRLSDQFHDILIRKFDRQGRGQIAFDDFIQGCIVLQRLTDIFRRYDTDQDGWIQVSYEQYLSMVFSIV

Q: How did the “effect of a mutation on the interaction” value turn out when G429S was run?
A: with no effect

Q: With G778A as the variant, how does the “effect of a mutation on the interaction” value read?
A: with no effect
